# Source: FireProtDB
# B1: Ribonuclease HI wild type, P0A7Y4 (protein)
# chain: MLKQVEIFTDGSCLGNPGPGGYGAILRYRGREKTFSAGYTRTTNNRMELMAAIVALEALKEHCEVILSTDSQYVRQGITQWIHNWKKRGWKTADKKPVKNVDLWQRLDAALGQHQIKWEWVKGHAGHPENERCDELARAAAMNPTLEDTGYQVEV
# Settings: Escherichia coli (strain K12), Thermal, CD, glycine-HCl 10 mM, whole UniProt chain shown
# [1] = pH 1.08, reversible: yes (102%)
# [2] = pH 1.14, reversible: yes (101%)
# [3] = pH 1.24, reversible: yes (103%)
# [4] = pH 1.28, reversible: yes (100%)
# [5] = pH 1.45, reversible: yes (101%)
# [6] = pH 1.52, reversible: yes (107%)
# [7] = pH 1.55, reversible: yes (104%)
# [8] = pH 1.62, reversible: yes (100%)
# [9] = pH 1.63, reversible: yes (108%)
# [10] = pH 1.67, reversible: yes (108%)
# [11] = pH 1.76, reversible: yes (101%)
# [12] = pH 1.79, reversible: yes (104%)
# [13] = pH 1.84, reversible: yes (110%)
protein,measurement,setting,value
B1,Tm,"pH 0.53, reversible: yes (95%)",23.6 °C
same,unfolding enthalpy (van 't Hoff),"pH 0.53, reversible: yes (95%)",41.2 kcal/mol
same,Tm,"pH 0.83, reversible: yes (96%)",23.9 °C
same,unfolding enthalpy (van 't Hoff),"pH 0.83, reversible: yes (96%)",37.3 kcal/mol
same,Tm,"pH 1.02, reversible: yes (98%)",20.4 °C
same,unfolding enthalpy (van 't Hoff),"pH 1.02, reversible: yes (98%)",34.7 kcal/mol
same,Tm,"pH 1.07, reversible: yes (88%)",24.9 °C
same,unfolding enthalpy (van 't Hoff),"pH 1.07, reversible: yes (88%)",35.3 kcal/mol
same,Tm,[1],22.3 °C
same,unfolding enthalpy (van 't Hoff),[1],49.6 kcal/mol
same,Tm,[2],21.5 °C
same,unfolding enthalpy (van 't Hoff),[2],51.5 kcal/mol
same,Tm,[3],21.5 °C
same,unfolding enthalpy (van 't Hoff),[3],48.7 kcal/mol
same,Tm,[4],23 °C
same,unfolding enthalpy (van 't Hoff),[4],52.7 kcal/mol
same,Tm,"pH 1.3, reversible: yes (101%)",21.2 °C
same,unfolding enthalpy (van 't Hoff),"pH 1.3, reversible: yes (101%)",56.9 kcal/mol
same,Tm,"pH 1.31, reversible: yes (94%)",20.9 °C
same,unfolding enthalpy (van 't Hoff),"pH 1.31, reversible: yes (94%)",45.5 kcal/mol
same,Tm,"pH 1.4, reversible: yes (91%)",20.3 °C
same,unfolding enthalpy (van 't Hoff),"pH 1.4, reversible: yes (91%)",52.9 kcal/mol
same,Tm,"pH 1.41, reversible: yes (98%)",21 °C
same,unfolding enthalpy (van 't Hoff),"pH 1.41, reversible: yes (98%)",46.1 kcal/mol
same,Tm,[5],21.8 °C
same,unfolding enthalpy (van 't Hoff),[5],52 kcal/mol
same,Tm,[6],21.5 °C
same,unfolding enthalpy (van 't Hoff),[6],55.3 kcal/mol
same,Tm,"pH 1.55, reversible: yes (93%)",21.7 °C
same,unfolding enthalpy (van 't Hoff),"pH 1.55, reversible: yes (93%)",53.4 kcal/mol
same,Tm,[7],20.8 °C
same,unfolding enthalpy (van 't Hoff),[7],54.4 kcal/mol
same,Tm,[8],20.6 °C
same,unfolding enthalpy (van 't Hoff),[8],56.4 kcal/mol
same,Tm,[9],21.9 °C
same,unfolding enthalpy (van 't Hoff),[9],55.7 kcal/mol
same,Tm,[10],23.6 °C
same,unfolding enthalpy (van 't Hoff),[10],70.6 kcal/mol
same,Tm,"pH 1.71, reversible: yes (98%)",21.1 °C
same,unfolding enthalpy (van 't Hoff),"pH 1.71, reversible: yes (98%)",58.3 kcal/mol
same,Tm,"pH 1.75, reversible: yes (90%)",21.7 °C
same,unfolding enthalpy (van 't Hoff),"pH 1.75, reversible: yes (90%)",72.5 kcal/mol
same,Tm,[11],25.2 °C
same,unfolding enthalpy (van 't Hoff),[11],78.5 kcal/mol
same,Tm,[12],23.9 °C
same,unfolding enthalpy (van 't Hoff),[12],60.7 kcal/mol
same,Tm,[13],23.9 °C
same,unfolding enthalpy (van 't Hoff),[13],64.8 kcal/mol
same,Tm,"pH 1.94, reversible: yes (88%)",24.8 °C
same,unfolding enthalpy (van 't Hoff),"pH 1.94, reversible: yes (88%)",74.6 kcal/mol
same,unfolding free energy,"pH 2, 10 °C, reversible: yes",2 kcal/mol
